Source: the DeepSol protein solubility set

Assay: soluble on expression in E. coli; label from the status in PepcDB or PDB records

Soluble on expression in E. coli, not soluble:
MGSDKIHHHHHHMGESASGSDRSQKARGAFRVRSLQIRYKTSRPEIRQSWRSMLQRERPCKGGREDFEKGRRGNFSSPLRSVSLQGDCRTQLRSGKEALQFRETRRHTEQGGITMKVVVGIPSYNNAETISHVARTAAQGIVDFFDGDGMIVNSDGGSADGTRERFMETDTFGLPKESFVYEGLPGKGSAMRAIMEFALKQDAEAVVFLDADLRSVKPWWVERLAGPVLKGEADYVTPFYLRHRFDGTITNNVCFPMTAVLYGKKVRQPIGGDFGVGRKLLEIYLGKPKEIWNTDVARFGIDIWMTTTAINESGRVVQAALGTKVHDVKDPGKHLKGMFLQVVGTLFELVITYENVWKEIWKIEDVPIYGETPQEEVPSMSIDIGNLKKLARETLEEVEYIDRGILSEVKESGTLSLSSWVDTLYRSAVQYRKTRDKKVVENLLPFYFARTARFAEEVKSLSDEEAERYVYEQLDVFLEKKHSLREEWKVEDKR
MRNMKSTSHESESGKLLSISSCRPREMVLQRYSLGMTVTADRHLADKREEFAVEDISTGIFASGYGQVGDGRSFSFHIEHRSLVVEIYRPRVAGPVPQAEDVVAMAVRGLVDIDLTDERSLAAAVRDSVASAAPVSR
MPKMDVKGIAVTVYSENAMDFISLTDMLRAKDGDFFISDWLRNRNTVEFLGIWEQVHNPNFNYGEFATIRSQAGLNSYKISVKEWVARTHAIGLVAKAGRYGGTYAHKDIAFEFGMWISAEFKIYLIKEFQRLKEAEQQQLGWDIRRNLTKINYRIHTDAIQTNLIPPALTQSQISLIYASEADLLNMALFGKTAKQWREENPNNKGNIRDEANVSQLVCLANLETLNAHFIHQGLPQVERLKILNQTAIHQMKLLLADRSLKQLDGN
MGIPKEGEFVTIQSYKHDGHLHRTWRDTMVLKTSEYSLIGVNDHTLVTESDGRRWVTREPAIVYFHKKYWFNIIAMIREKGVSYYCNLASPYVLDDEALKYIDYDLDIKVFPDGEKRLLDVDEYEFHSKLMDYPEDIDFILKENVKTLVDWINNEKGPFSPEYVDIWYQRYQQLSKK
MKCIETPKSAEEWRKVERTFAKKHILRCLGSLDGKHIRIKAPPHSGSLFFNYKHFFSFVLLVVVDADGRVIWVDVGSPGSNNDASIFSDSKLKTILDEEANLPPPTFWSRDFVVKPFVIADGIFKITPRMMTLYGGNGLNISQKVLNKKLSRARVKAEHAFGRLSAKFRILRREMECPYEKSVDIILALCHLHNYLIGKAEDVVNVPIETNMIPYKDGKEQRDYLCRYLNN
MGSDKIHHHHHHMIHKLADVQSQNIGDNTKVWQFCVILAGAVIGRNCNICANSLIENDVVIGDNVTIKSGVQIWDGIHIQDDVFIGPNVTFTNDKQPRSKIYPDEYLKTIVKKGASIGANSTILPGILIGENAMVGAGAVITKNVPDNAIVIGNPGRITGYVEANTGVIMPSNNFELKLQMSKVKGVSLHKFHLVNDLRGNLSVGEFEKDIPFTPKRYFTVFGVPNKEVRGEHAHKECKQFLICVSGNCSVLVDDGENREEYVLDSIDKGIYLPPMTWGVQYKYSKDAVLLVFASHYYDSDDYIRDYSTFKQMRQN
MNLDYLKETYHLTKTESQILYYLDQQSTNAADLSIREVAKHCFSSPSSIIRLAKKLNLSGYNELIYKLKEAHFSQPIPFETAPSFETTNEFCRLLAKHKSHLFVILGHDFSRHLAAYISEVFNFHGIPSITTAYTHSINSQNNQNFLFIILSHSGEEKYLKETALLAKEKKHPIISFVGAKNSTLGRLADLVFSTDSYSPFSTSVAQPQMFFGQTLITFEALICAYLNHEDSIPISHKNK
MGSDKIHHHHHHMTWDQSPLRGGEPIVSVQSPFEAIERGPKMEMRDIDFLIIGATKSATTWLQQSLQQDPGIFMPDPELHYFSRYYERGDEWYLEHFAGQEHRRLRGEKSNSYMDVPEAAERIKEKLPEARLIAHVRNPVDRAYSDYCMLYRRAEVGRDIAQYLDPRQGAGGRFLNGGLYYQQLQGYLDRFPAEQILVLLYEDLKIDARAQLARVRGFLGLEADVPLKPLAKKVKDKSEPVVNPTLRRLLRPLKPVAAPFRQNTGFKKLRSLIAGELQYAPLSHDLRARMTDYFAPETEKLGALVGRDLTDWLRNRSPEK
MQDTDFFSWRRTMLLRFQRMEAAEEAYHEIELQAQQLEYDYYSLCVRHPVPFTRPKVAFYTNYPESWVSYYQAKNFLAIDPVLNPENFSQGHLMWNDDLFSEAQPLWEAAHAHGLRRGVTQYLMLPNRALGFLSFSRCSTREIPILSDELQLKMQLLVRESLMALMRLNDEIVMTPEMNFSKREKEILKWTAEGKTSAEIAMILSITG
SLIHIAIVEDENKDRELLKEYLDRFQAEKGEPLFVHVYPDGEEFLESFSSGKFDILLLDIHMQYMNGMATAQEIRKSDENVLIIFITNLVQYAVQGYSVRAFDFIVKPVEYSVFAQKLYRATQRLNRTIHSCVRFKVLDQIVNLQLSGILYFEIVARKLFIYTDTEIYRCNDTLHSIEEKLNDGHFFRCHAGYLVNVAYVRSVGKDYAMVGSARIPVSKHRRKAFLDAIGNYLGSKEG
TPDADKKGAVFALDQEPEAQAAVVALDPLSGAVKAMVGGYDFRKSQFNRALQAKRNPGSAFKPLIYAAALDKGITPATIFDDSPVEYESGKEKAWKPKNYDNIYRGNVTMREALTNSINVVSVKILEQIGVDYAIEYAKKLGITSPLSANLTLALGSSSLTPLELTSAYAVFASGGYRTTPYFVTRVEDAEGRTLEETAPPVIPRFSVMTSAESSPLEASPAPPATAGDSASTAVPVIAPETAYIMTNLMESVVQSGTGQRARAVGRPVAGKTGTTNDMKDAWFVGYIPQLVAGVWVGYDQERSLGAGGSGGQAAAPIWTEFMRRAVAGIPSRDF
MGSDKIHHHHHHMIGHVPVGSSAPVVVQSMTNTDTADAAATVRQVYELWRAGSEIVRITVNSPEAAAQVGAIRRQLDDLGCNVPLVGDFHFNGHRLLAQYPDCAEALAKYRINPGNVGKGSKRDEQFSAMIKAAIDYNKPVRIGVNWGSLDQAKMARMMDENSKRAAPLAADALMREMLIQSALENAAAAEELGLPSDRIIISCKVSAVQDLIKVYRDLGSRCDYPLHLGLTEAGMGSKGIVASTAALSVLLQDGIGDTIRVSLTPEPGESRTKEVVVAQEILQTMGIRSFTPLVTACPGCGRTTSTFFQELAQKIQHYLRDQMPVWRSQYPGVENMSVAVMGCVVNGPGESKLANIGISLPGTGEVPVAPVYVDGEKTVTLKGERIADDFKVIVEEYVRVNYAEGGRLRQQGTGTGLKTIPLKAI
MSLNRSSIAHFTASVFVLNESHDKILGIYHKIYQSWGWVGGHADGNADLLAVAVKEVQEETGLRSFKKLSEMPISIEALPVFGHHHRKYGYVSAHIHLNVTFLFEAKESDSLQKNTDETGGLAWIPLEKFSEKSSEKEMRVIYDKIITRIINKEGHHHHHH
MAHHHHHHMSSVDSTHRLLHPCTGILPSASLHGRHSIALAPPPTLPPPPLLHTRIPIHIHIIHYATLNPATFLDHSTQLDYEMPTRFKKCRHQRGSTFCGYGRVGKHRKHESGRGNAGGMHHHRINFDKYHPGYFGKLGMDHYHRKKNPMWKPTINLNNLSRLIAAEEAAKAAKGGTLPVVDLQSSGYAKLLGNGHIQVPCIVKARYVSKLADKKIRKAGGAVVLQA
MPKISSRDGGRPAQRTVNPIIVTRRGKIARLESGLTPQEAQIEDLVFLRKVLNRADIPYLLIRNHKNRPVLAINIELRAGLERALAAACATEPMYAKTIDEPGLSPVLVATDGLSQLVDPRVVRLYRRRIAPGGFRYGPAFGVELQFWVYEETVIRCPVENSLSRKVLPRNEITPTNVKLYGYKWPTLDGMFAPHASDVVFDIDMVFSWVDGSDPEFRARRMAQMSQYVVGEGDDAEARIRQIDELKYALRSVNMFAPWIRRIFIATDSTPPPWLAEHPKITIVRAEDHFSDRSALPTYNSHAVESQLHHIPGLSEHFLYSNDDMFFGRPLKASMFFSPGGVTRFIEAKTRIGLGANNPARSGFENAARVNRQLLFDRFGQVITRHLEHTAVPLRKSVLIEMEREFPEEFARTAASPFRSDTDISVTNSFYHYYALMTGRAVPQEKAKVLYVDTTSYAGLRLLPKLRKHRGYDFFCLNDGSFPEVPAAQRAERVVSFLERYFPIPAPWEKIAADVSRRDFAVPRTSAPSEGALEHHHHHH
MVEFRNEVSHQWTRRHTLRKFRAGMLSRDSLCDADFVLVTASKFHGSRVPTPCPVCDSDQLRHVLWVYGESLGRASGSARTMEEIVTFAQSGKEFTVHTVEVCPDCRWNHLLNSVTAMPQ
MGSDKIHHHHHHMLIISPKYLNGKIEIEKGERVGLVGKNGSGKTTLILSALCLDQTTSNVTVDDLDFCKEKDYSKISAVLQDVSSQILASTLKDEIELMKRFHSVDDKIARNLMGHYYEVEFNKLSDGYKKRYAIASVLASNPEYILLDEPFANLDDKGVKSVSTIVPKNSLIAEHRIEELRKLVDRVYMIRNNKEINEISKEKLFDIEFLRKEGLRGFSLPKINSELGNEILNVNIDNFTIKIREGEILCLLGRNGSGKTTILRKLSKKIFVIFQEVDLQFFYFTVREIVRSKRVLSLFKLENLADKSPYALSFGQKMRILIASAFSSDSRVIGLDEPSVGMDGEALLSFYEMVKMLKEQKRGLILATHDKDIISLCDTRIVID

Soluble on expression in E. coli, soluble:
MSFDKQNLIWIDLEMTGLDPEKERIIEIATIVTDKNLNILAEGPVLAVHQSDELLNKMNDWCQKTHSENGLIERIKASKLTERAAELQTLDFLKKWVPKGASPICGNSIAQDKRFLVKYMPDLADYFHYRHLDVSTLKELAARWKPEILEGFKKENTHLALDDIRESIKELAYYREHFMKLDLEHHHHHH
MEIKEITIIGGYDKNGNPEPVREVTIKRGEIVGVVGPTGSGKSNLISDIEQLAQGDTISKRRILVNGEVPPIEMRRDPKKRRIAQLSQNMNFLADMTVEEFILMHAKSRGVYRENIVDEVIELANRLTGEPIKKDYNLTILSGGQSRSLMVADVAVISDSPIVLIDEIENAGIKKHEALELLAGYGKIVLVITHDPVLALMTDRRIVMRNGGMQKIIETTEEEKEISRKINEVDNWLLSLREKIRFGERLTHEDISLMVKG
RVCPRILLECKKDSDCLAECVCLEHGYCG
MEDDHSKEMDRLRSQAAKVQSEKETFDRKRRETLEKHKKELDELEKKNKKEEDDLREQNMNLWNKNLDQQIALGNELNNKYTEISNQNSRLQIKIGQEEDIRVFKIKLLDVSKVWTDVKVNYQDYLRNTLDEHSNSNKSDVLKEIDTLIYNKEKLNEVLITAKKLLGKCQKFTTSDSFKVINDSLTELMRFKFEDDILIELKTIIKKNGSAEQSFLTKMDETIDKYNEMVNELPGLQLKSVEPIHQAAIQ
GIPRNSRVDSDDFLWFEGIAFPTMGFRSETLRKVRDEFVIRDEDVIILTYPKSGTNWLAEILCLMHSKGDAKWIQSVPIWERSPWVESEIGYTALSETESPRLFSSHLPIQLFPKSFFSSKAKVIYLMRNPRDVLVSGYFFWKNMKFLKKPKSWEEYFEWFCQGTVLYGSWFDHIHGWMPMREEKNFLLLSYEELKQDTGRTIEKICQFLGKTLEPEELNLILKNSSFQSMKENKMSNYSLLSVDYVVDKTQLLRKGVSGDWKNHFTVAQAEDFDKLFQEKMADLPRELFPWE
GMTRRIAICAPSTPFTREDSARVIALAAAEFPDLSLSFHEQCFASEGHFAGSDALRLSAFLECANDDAFEAVWFVRGGYGANRIAEDALARLGRAASAKQYLGYSDAGTLLAALYAHRIGRSVHAPMPVDIRRPEGESAVRRTLGWLAGAREGLEPTLGAGAPAVAFNLMTLAMLCGTRLLPDLSGHVVMIEEVAEHHYAVDRLLFHVTSCLADAGIAGLRLGRVSDVPENDRPFGCSVEEMARHWCHRAGIAFLGTADIGHDVDNRIVPFGLA
